Experimental data published in the supplement of paper PMC9170038.

Tested on: MS2 coat protein
Test: apparent KD of MS2 coat protein; higher = weaker reporter binding
Settings: Eterna round: R107
Experimental: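 RNA-MaP round R107: designed RNA switches with theophylline, tryptophan, arginine or FMN aptamers are transcribed on-chip within common flanks. They are titrated with SNAP-549-labelled MS2 coat protein in RNA-MaP buffer (100 mM Tris pH 7.5, 80 mM KCl, 4 mM MgCl2), without ligand or with the indicated ligand. Median apparent KD per design.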

[1] = input ligand: theophylline 20 uM
[2] = input ligand: theophylline 2 mM
[3] = input ligand: tryptophan 2.4 mM

Sequence | apparent KD of MS2 coat protein (input ligand: arginine 13.2 mM) [nM] | apparent KD of MS2 coat protein (input ligand: none) [nM] | apparent KD of MS2 coat protein [1] [nM] | apparent KD of MS2 coat protein [2] [nM] | apparent KD of MS2 coat protein [3] [nM]
GAAGGAGAACUCAUGACUCCUUCCCUGGAAGGAGCGAGCGAAAGCUCAGGUAGGUCGCCAGAAACAUGAGGAUCACCCAUGUAAU [(A)''-(M)'-(A)'-(Arg1)-(Arg2)-(M1)-(M2)_Design4] | 28.5 | 37.4 | 48 | 43.3 | 40.1
GGUUGAUGGUCGGCCGCCACUGUUGGUGCCAUGAGUUAAGUAUAGCACAUGAGGAUCACCCAUGUCAGGACCGGGACUCUACCCG [theeternabot_exclusion_MS2_Trp_B_16] | 15.1 | – | 19.6 | 20.9 | –
GAAGAGAGGAUACCGUUUGUAUACAACGAUACCAGUGGUAUGUAUCACCCUUGGCAGCGUGAGACAUGAGGAUCACCCAUGUGGC [theeternabot_exclusion_MS2_Theo_A_46] | 14.3 | – | 26.1 | – | 18.4
CUCUCAUGAACAUGAGGAUCACCCAUGUAACGAGGACCGGUACGGCCGCCACUCGGUCGUGGAAACUAAUCGAGUGAGGUGGGAG [Tryp A Ex t5c] | 26.8 | 44.4 | 85.7 | 75.3 | 254
AAAAGAGGUGGAAGGAGCGGGAGACAUGAGGAUCACCCAUGUGAUAUGACAAGAGGAUCAGCCCAGGUAGGUCGCCAUGUCGAAA [pbbbmullin] | 17.9 | 71.1 | 53.1 | 103 | 50
CCUAUGCAGUCGGCCGCCACUGAUAACGUUAUCGUUACCUCAGAAACAUGAGGAUCACCCAUGUACAGGACCGGGACUGUAUAGG [Ex Tryptophan B 19] | 14.4 | – | 14.6 | 13.2 | –
GGUUGGUCGCAGGAUACCAGUCCACCCGUGAUACUGCUAAACAUGAGGAUCACCCAUGUCGACCCUUGGCAGCCUGUCCAUGCGU [theeternabot_exclusion_MS2_Theo_B_45] | 18.8 | – | 27.3 | – | 17.1
UAAUAAAUAAGUGAUACCAGCGAGAAAACAUGAGGAUCACCCAUGUUCGCCCAUGUUAAGCGCCCUUGGCAGCACAAAUAUAAAA [AstrosExyTheB#1] | 25.6 | – | 42.7 | – | 33.6
AAAACACAUGAGGAUCACCCAUGUCAUGAUACCAGUCAACAUGAGGACCCUUGGCAGCAUAAAAUGGGUAACAUGAGGAUCACCC [AstrosEXyTheA#1] | 129 | 29.4 | 93.8 | 102 | 50.5
CCUAUGCAGUCGGCCGCCACUGAACAUGAGGAUCACCCAUGUAAUUAUAAAUAUGGUCCUAAAAUCAGGACCGGGACUGUAUAGG [Ex Tryptophan B 7] | 122 | 64.2 | 144 | 296 | 237
AUAUAUGACAGAAGGAGCGCCAUGAACACACAUGAGGAUCACCCAUGUUUUUUUUGUGUUUGGCAGGUAGGUCGCUGACAUGAAA [Same State Arginine B 3] | 9.45 | 8.71 | 17.7 | 11.6 | 9.98
GGCACAUAGUCGGCCGCCACUAGAUUUUAGUGGAAUAACAUGAGGAUCACCCAUGUAUUUGGGACUAGGACCGGGACUAUGUGCC [Hyena] | 34.5 | – | 43.2 | 38 | –
UCCCUACCGUCGGCCGCCACUGGGUCAUACAGUUCGUAACUACAUGAGGAUCACCCAUGUGCAGCCAGGACCGGGACGCGCCUUG [theeternabot_sameState_MS2_Trp_B_16] | 30.2 | – | 153 | 148 | –
UGAUACACGGGAAGGAGCGACAGGGAUAAGUCCGCACGGGCCGCACAUGAGGAUCACCCAUGUCAGGUAGGUCGCCCGUGGCGUG [Erxemarima] | 13 | 13.5 | 19.6 | 16 | 12.9
CACGCGGUGUCGGCCGCCACUGACGCCCGUGGGUCUCCUGACAUGAGGAUCACCCAUGUACAGCGCAGGACCGGGACACCAACAA [Are] | 22 | 49.4 | 59 | 64.2 | 29.3
UGUAUGUGAUCUGAUACCAGUCCAACUGGUAAAAUCUGAGGAUCACCCAGGUAAAAUUGGGACCCUUGGCAGCAGAUCGCAUACU | 146 | 175 | 423 | 544 | 235
GUCCAAAGGUCGGCCGCCACUGUAGAGUGUGUUCUUUCACAUGAGGAUCACCCAUGUUGUUAUUAUAGGACCGGGAUUGUAGGAC [#21 Exclusion Tryptophan B] | 17.2 | – | 31.1 | 23.4 | –
GGAUAGGACACGGCCGCCACUAUCUAGGAUACUAGCAACAUUUGGGUACUUGAGGAUCACCCAAGUAGGACCGGGUGUCCUAUCG | 82.7 | 170 | 226 | 253 | 307
UUUUUCAUAGGUUAUAGUUAAGAAACUGAAGGAGCGUGGUAAUACACAGGUAGGUCGCAGAUUUUACAUGAGGAUCACCCAUGUU [JR_SSArginiA_Sub009] | 27.8 | 34.9 | 31.9 | 21.5 | 36.4

Sequence | apparent KD of MS2 coat protein (input ligand: arginine 13.2 mM) [nM] | apparent KD of MS2 coat protein (input ligand: none) [nM] | apparent KD of MS2 coat protein [1] [nM] | apparent KD of MS2 coat protein [2] [nM] | apparent KD of MS2 coat protein [3] [nM]
UGCAUUAUACAUGGAUCACCCAUGUAGACACGAGGACCGGUACGGCCGCCACUCGGAAGAGGAAACAUGAGGAUCACCCAUGUGA [Try A SS t2] | 42.7 | – | 89.7 | 105 | –
UGUAUGUGAUCUGAUACCAGAGUGACGCGAAAGCGAAACCUGAGGAUCACCCUGGUAAAACUCCCUUGGCAGCAGAUCGCAUACU | 76 | 49.5 | 35.3 | 23.9 | 68.3
AACAUGAGGAUCACCCAUGUCUGAACUGAAGGAGCGCUAAAUAAGGCAGGUAGGUCGCGGAAUUUUGUGUGCAUAUGCAUAUGGG [9.I] | 28.1 | 30.3 | 32.6 | 29.8 | 23.8
AUAACAUGAGGAUCACCCAUGUAAGGUGAUACCAGACGAAGUAAAGUCCCUUGGCAGCACAAGUAAAGUUACGAAUAUUGAUAGA [JR_SSTheophyA_Sub004] | 62.2 | – | 416 | – | 634
GUCUGUGUCUGAAGGAGCGACAUGAGGAUCACCCAUGUCUCCCGUUAUGGGAGUUCCUUAGGUCAGGUAGGUCGCAGACACAGAC [#1 Exclusion - Arginine B Attempt #27 (Inspired by Omei)] | 110 | 123 | 164 | 187 | 107
ACGUCACGUUUACUCGUGGUUUCGAUCGAUACCAGUAGCGAGAGUUACCCUUGGCAGCGACAUGAGGAUCACCCAUGUACGAAGA [XTheo A #25] | 10.8 | – | 14.5 | – | 12
GCAUCCUAGUCGGCCGCCACUGCAUCACCAGUGGCAGGUGAUCAACAUGAGGAUCACCCAUGUAGCAGGACCGGGACUAGGAUGC [(Trp1)-(TM)''-(TM)'-(Ms2)-(Trp2)_Design4] | 113 | – | 163 | 168 | –
GUCCUCGUGUCCGGUUUAGCGCAAAGCGCACGAGGACCGGUACGGCCGCCACUCGAAACAUGAGGAUCACCCAUGUGAAGAAUAA [Design 1] | 14.4 | 14.6 | 21.8 | 15.8 | 17.8
AUGCAUAGCGGAAGGAGCGCAAUAGAAUGACAUGAGGAUCACCCAUGUGUGUGAUGUGGAUUGCAGGUAGGUCGCCGAGUGGUAU [Exclusion - Arginine B (Freestyle 3)] | 35.9 | 45.1 | 57.5 | 42.7 | 42.8
GCCUAGCAGCGAAGGAGCGACAUCGGCGCAUGCGAGGACAUGAGGAUCACCCAUGUACCAUGUCAGGUAGGUCGCGCUGCUAGGC [EAB NP+V+V2 #6] | 17.9 | 23.4 | 36.4 | 23.2 | 24.5
GAGCUGAUGUAGAGCCUUUAGUUCUGAGAUACCAGUACAGAAAUGUACCCUUGGCAGCUCAGCUUUACAUGAGGAUCACCCAUGU [Ex Theophylline A 17] | 20 | – | 27.7 | – | 23.5
AGCGAUUUCGGAAGGAGCGGUACAUGAGGAUCACCCAUGUAUUCAAUCGUGAUCGGCGCGUGCCAGGUAGGUCGCCGAAGGCGUC [Veatat] | 12.4 | 9.95 | 14.9 | 10.9 | 11.9
UAAAACAUGAGGAUCACCCAUGUAUUUGAUACCAGAGUGAUGAUCCUCCCUUGGCAGCAAAUAACGCAUUGAUUACAAUGCGAAA [Mat - Same State Theophlline A - Mod of Eli - D28] | 34.8 | – | 121 | – | 36
AAAUAAAUACAUGAGGAUCACCCAUGUGAAGGAGCGCCCGUUAGGGCAGGUAGGUCGCGCAUGAAUAACUCCGUGCAAAAGCACA [ArgEX 19 #OpenEnded] | 57.8 | 15.6 | 37.3 | 26.4 | 19.6
GGGUAUGAUCCGGAUACCAGCGAACAUGAGGAUCACCCAUGUGACCUAAGAUAGGCUAAACGCCCUUGGCAGCCGAGAUUGCGUU [Same State Theophylline B GF7] | 32.4 | – | 49.7 | – | 41
UCGUAGGUAGGAAGGAGCGCAUACUUCACAUGAGGAUCACCCAUGUCGAGACGUGAGUCAGUGCAGGUAGGUCGCCUAGUUAUGA [Same State - Arginine B (Freestyle 24)] | 19.6 | 41.1 | 36.2 | 40.2 | 29.2
UCACGACGCAUGGAUACCAGCGACAUGAGGAUCACCCAUGUAUGAGGAUCAGCCAUGUUAUGCCCUUGGCAGCCACGAAGGUCAU [KNKMULLIN] | 14.2 | – | 20.1 | – | 15.8
UCGUGUAUAUCGGAUACCAGUGAAAUCGAUACAUGAGGAUCACCCAUGUGAGUUGAUGUACACCCUUGGCAGCUGUAUAUAUCUA [snbullin] | 15 | – | 18.1 | – | 15.3
UGUAUUGGAAACAGUACUAGUGAUCCGGUCCGAGGACCGGUACGGCCGCCACUCGAAAUUAAUAAACAUGAGGAUCACCCAUGUA [Ex Tryptophan A 11] | 15.7 | – | 19.7 | 20.2 | –
